These results are taken from patent publication US20200222444.

This data set addresses Flag-Mettl8 (Flag-tagged human Mettl8, wild type) (UniProt Q9H825).

Sequence of Flag-Mettl8 (Flag-tagged human Mettl8, wild type) (Q9H825 other isoform, or with tags, fused parts or gaps): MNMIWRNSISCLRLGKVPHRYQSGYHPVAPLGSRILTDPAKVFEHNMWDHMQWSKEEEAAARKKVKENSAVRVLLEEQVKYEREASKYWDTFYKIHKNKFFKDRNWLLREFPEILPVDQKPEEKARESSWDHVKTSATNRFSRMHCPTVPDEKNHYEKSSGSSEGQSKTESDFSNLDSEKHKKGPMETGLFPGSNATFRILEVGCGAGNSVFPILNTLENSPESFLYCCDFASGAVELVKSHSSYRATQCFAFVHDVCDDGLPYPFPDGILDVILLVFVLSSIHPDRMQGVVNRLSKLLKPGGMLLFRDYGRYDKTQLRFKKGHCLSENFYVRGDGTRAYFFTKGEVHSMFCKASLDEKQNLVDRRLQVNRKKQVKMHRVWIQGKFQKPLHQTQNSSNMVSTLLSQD

For the substance Endogenous ATM, the “pS/TQ phosphorylation after 10 Gy irradiation (Flag IP, immunoblot)” value is listed as “pS/TQ phosphorylation was detected on wild type Mettl8 upon irradiation”.
